Key:
Assay in all cases: steady-state chlorination kinetics
Format in all cases: biochemical, Streptomyces toxytricini
Details in all cases: wild type; kinetic assay conditions not given
[1] = substrate: NC(=O)c1ccccc1N
Text: (§1) steady-state chlorination kinetics on SttH

[2] = substrate: Nc1ccccc1C(=O)C[C@H](N)C(=O)O
Text: as §1

[3] = substrate: N[C@@H](Cc1c[nH]c2ccccc12)C(=O)O
Text: as §1

B1: SttH (Streptomyces toxytricini) (protein)
chain: MNTRNPDKVVIVGGGTAGWMTASYLKKAFGERVSVTLVESGTIGTVGVGEATFSDIRHFFEFLDLREEEWMPACNATYKLAVRFQDWQRPGHHFYHPFEQMRSVDGFPLTDWWLQNGPTDRFDRDCFVMASLCDAGRSPRYLNGSLLQQEFDERAEEPAGLTMSEHQGKTQFPYAYHFEAALLAEFLSGYSKDRGVKHVVDEVLEVKLDDRGWISHVVTKEHGDIGGDLFVDCTGFRGVLLNQALGVPFVSYQDTLPNDSAVALQVPLDMEARGIPPYTRATAKEAGWIWTIPLIGRIGTGYVYAKDYCSPEEAERTLREFVGPEAADVEANHIRMRIGRSEQSWKNNCVAIGLSSGFVEPLESTGIFFIHHAIEQLVKHFPAGDWHPQLRAGYNSAVANVMDGVREFLVLHYLGAARNDTRYWKDTKTRAVPDALAERIERWKVQLPDSENVFPYYHGLPPYSYMAILLGTGAIGLRPSPALALADPAAAEKEFTAIRDRARFLVDTLPSQYEYFAAMGQRV
notes: wild type, purified recombinant from E. coli; dimer in crystal
Km [1]: 1075 ± 154 µM | kcat [1]: 0.0202 ± 0.000667 s⁻¹ | kcat/Km [1]: 18.3 ± 2.83 M⁻¹ s⁻¹ | Km [2]: 241 ± 32 µM | kcat [2]: 0.0085 ± 0.000333 s⁻¹ | kcat/Km [2]: 35 ± 5 M⁻¹ s⁻¹ | Km [3]: 0.8 ± 0.1 µM | kcat [3]: 0.0108 ± 0.000333 s⁻¹ | kcat/Km [3]: 13700 ± 1580 M⁻¹ s⁻¹

— article PMC5071727, “A Structure‐Guided Switch in the Regioselectivity of a Tryptophan Halogenase” (Chembiochem, 2016)
